The values that follow come from paper PMC12175907 (Science Advances, 2025).

One data set concerns DIO GLP-1R KO mice. Put plainly: chronic treatment, food intake and body weight, DIO GLP-1R KO mice. In kind it is in vivo, mouse. The note with it: GIP-085 300 nmol/kg, semaglutide 3 nmol/kg or combo, sc daily, 16 days; n = 6 per group. The source says: DIO adult male C57BL/6 mice (Taconic) C57BL/6 (n = 23, weighing ~43 g at arrival), GLP-1R KO (germline knockout line: 11549, n = 24, weighing ~38 g at arrival), and GIPR KO mice (germline knockout line: 2886, n = 24, weighing ~35 g at arrival) were used. Upon arrival, mice were individually housed and continued to be fed ad libitum on high-fat/high-sugar diet (60% fat diet, 12492, Research Diets).
GIPFA-085 (GIP-085), tirzepatide, and GLP-140 were designed and produced by Eli Lilly and Company. GIP-085, GLP-140, and semaglutide (Cayman Chemical) were dissolved in 40 mM tris-HCl buffer (pH 8) and 0.02% Tween 80. For the study in mice, all drugs were injected subcutaneously at a volume of 5 ml/kg of body weight. In rats, all drugs were injected intraperitoneally, at a volume of 1 ml/kg of body weight, except when noted. In shrews, all drugs were injected intraperitoneally at a volume of 10 ml/kg of body weight.
C57BL/6 wild-type (n = 23), GLP-1R KO (n = 24), and GIPR KO mice (n = 24) received daily subcutaneous administration of GIP-085 (300 nmol/kg), semaglutide (3 nmol/kg), GIP-085/semaglutide combo, or vehicle for 16 days. Food intake and body weight were manually measured daily. […] Body composition of mice was determined using quantitative nuclear magnetic resonance analysis (ECHO MRI, 3-1 Composition Analyzer; Echo Medical Systems). […]

A further data set deals with DIO wild-type mice. Put plainly: body composition (ECHO MRI), DIO wild-type mice. In kind it is in vivo, C57BL/6 mouse. The note with it: 16 days daily sc, GIP-085 300 nmol/kg, semaglutide 3 nmol/kg, mean ± SEM, n=5-6 per group. How it is done:
(§1) C57BL/6 wild-type (n = 23), GLP-1R KO (n = 24), and GIPR KO mice (n = 24) received daily subcutaneous administration of GIP-085 (300 nmol/kg), semaglutide (3 nmol/kg), GIP-085/semaglutide combo, or vehicle for 16 days. Food intake and body weight were manually measured daily. The average body weight at the start of the experiment was 43.7 ± 0.4 g for the wild-type group, 39.0 ± 0.6 g for the GLP-1R KO group, and 36.5 ± 0.4 g for the GIPR KO group. Body composition of mice was determined using quantitative nuclear magnetic resonance analysis (ECHO MRI, 3-1 Composition Analyzer; Echo Medical Systems). At the end of the experiment, the animals were euthanized by CO2.

A further data set relates to DIO GIPR KO mice. In words: body composition (ECHO MRI), DIO GIPR KO mice. Type of data set: in vivo, mouse. The note with it: 16 days daily sc, GIP-085 300 nmol/kg, semaglutide 3 nmol/kg, mean ± SEM, n=6 per group. How it is done: as §1
In data set [1] the test system is shrews. In words: IPGTT, semaglutide, shrews. In kind it is in vivo, Suncus murinus. The settings on record: 10, 100 and 500 nmol/kg ip, 30 min before glucose 2 g/kg ip, 20 min post-glucose, n = 8 per group. An excerpt:
(§2) Adult male shrews (S. murinus) weighing ~50 to 80 g (n = 84 total) were bred and maintained in the De Jonghe Lab (University of Pennsylvania). These animals were offspring from a colony previously maintained at the University of Pittsburgh Cancer Institute (C. Horn); a Taiwanese strain was derived from stock originally supplied by the Chinese University of Hong Kong. Shrews were singly housed in plastic cages (37.3 cm by 23.4 cm by 14 cm, Innovive) under a 12-hour/12-hour light/dark cycle in a temperature-controlled and humidity-controlled environment. Animal were fed ad libitum with a mixture of feline (75%, Laboratory Feline Diet 5003, Lab Diet) and mink food (25%, High Density Ferret Diet 5LI4, Lab Diet) and had ad libitum access to tap water except where noted.
The protocol for performing an IPGTT in shrews (n = 16) was previously described ([27]). Briefly, each shrews received intraperitoneal injection of semaglutide (10, 100, and 500 nmol/kg) or vehicle (10 ml/kg body weight) followed 30 min later by a glucose bolus injection [2 g/kg, intraperitoneally (ip)]. Blood glucose readings were taken at −30, 0, 20, 40, 60, and 120 min post-glucose administration. This study was conducted using a partial within-subject design, with each animal receiving two treatments separated by a 7-day interval.

In data set [2] the test system is shrews. Put plainly: emesis, semaglutide dose-response, shrews. The note with it: for animals exhibiting emesis / emesis, dose dependence: 120 min; for animals exhibiting emesis: n = 9; for latency to first emetic episode: average of shrews that exhibited emesis, ± SEM; for emesis, dose dependence: 10, 50, 100 and 500 nmol/kg ip. In kind it is in vivo, Suncus murinus.
Description: as §2
To assess the emetogenic effects of semaglutide treatment, shrews (n = 9) were habituated to intraperitoneal injections and to clear plastic observation chambers (23.5 cm by 15.25 cm by 17.8 cm) for two consecutive days prior to experimentation. The animals were injected intraperitoneally with semaglutide (10, 50, 100, and 500 nmol/kg) or vehicle and then video recorded (Vixia HF-R62, Canon) for 120 min. After 120 min, the animals were returned to their cages. Treatment rounds were conducted within-subject and separated by 7 days. Analysis of emetic episodes was measured by a trained observer blinded to treatment groups. Emetic episodes were characterized by strong rhythmic abdominal contractions associated with either oral expulsion from the GI tract (i.e., vomiting) or without the passage of materials (i.e., retching). Latency to the first emetic episode, the total number of emetic episodes, and the number of emetic episodes per minute were quantified.

Data set [3] concerns adults with overweight or obesity. On the set-up: method as in 2 sources, ref 4 = [4]; PMID 33567185; doi:10.1056/NEJMoa2032183; 4 J. P. H. Wilding , R. L. Batterham , S. Calanna , M. Davies , L. F. Van Gaal , I. Lingvay , B. M. McGowan , J. Rosenstock , M. T. D. Tran , T. A. Wadden , S. Wharton , K. Yokote , N. Zeuthen , R. F. ||| ref 6 = [6]; PMID 34514682; doi:10.1111/dom.14551; 6 S. Wharton , S. Calanna , M. Davies , D. Dicker , B. Goldman , I. Lingvay , O. Mosenzon , D. M. Rubino , M. Thomsen , T. A. Wadden , S. D. Pedersen , Gastrointestinal tolerability of once-weekly sem. The note with it: cited from earlier work.

Regarding semaglutide, the “anorectic effects / food intake” value in the data set on DIO GLP-1R KO mice is on record as “absent”. Also, in the data set with DIO GLP-1R KO mice, the body weight entry is “absent”. For the same substance, the results for the “total fat mass at the end of the experiment” value in the data set with DIO wild-type mice (Veh: 17.9±0.5g) and with DIO GIPR KO mice (Veh: 14.2±0.6g) were 12.2 ± 0.8 g and 8.1 ± 0.6 g, respectively. Besides, the entries for the “total lean mass at the end of the experiment” value with DIO wild-type mice (Veh: 24.8±0.6g) and in the data set with DIO GIPR KO mice (Veh: 22.3±0.5g) were 24.6 ± 0.7 g and 20.9 ± 0.3 g, respectively. For the same substance, the figures for the “blood glucose levels following glucose” value in the data set with shrews [1] and with shrews [1] (listed as Semaglutide) were “significantly reduced glucose levels in a dose-dependent manner” and “dose-dependently suppresses blood glucose levels”, respectively. Further, the animals exhibiting emesis result is recorded as “Twenty-two” in the data set on shrews [2] (100 nmol/kg ip) and 67% in the data set on shrews [2] (500 nmol/kg ip). The “latency to first emetic episode” value came to 63 ± 14 min with shrews [2] (100 nmol/kg ip) and 58 ± 6 min in the data set with shrews [2] (500 nmol/kg ip). Further, the “emesis, dose dependence” value is “dose-dependently induced emesis” with shrews [2] and “causes emesis in a dose-related manner” in the data set with shrews [2] (listed as Semaglutide). Further, the patients reporting nausea in data set [3] (STEP 1) was 44.2%. Besides, in data set [3] (STEP 1), the patients reporting vomiting is given as 24.8%. The weight loss result in data set [3] (people with overweight/obesity without type 2 diabetes) is “double-digit weight loss”. In addition, the “participants with dose reduction or temporary treatment interruption (GI side effects)” value in data set [3] (pooled STEP 1-3 trials) is ~ 12.5%. Moreover, the “permanent treatment discontinuation (GI side effects)” value in data set [3] (pooled STEP 1-3 trials) is reported as ~ 4.3%.
